Experimental data from US20130309248A1.

What was measured:
[1] = target: HA of virus A/Brisbane/59/2007 (H1N1) (influenza A virus (H1N1)); assay: cell-based or functional assay
[2] = target: HA of virus A/Chick/Germany/N/49 (H10) (influenza A virus (H10)); assay: cell-based or functional assay
[3] = target: HA of virus A/Hiroshima/52/2005 (H3N2) (influenza A virus (H3N2)); assay: cell-based or functional assay
[4] = target: HA of virus A/Johannesburg/33/94 (H3N2) (influenza A virus (H3N2)); assay: cell-based or functional assay
[5] = target: HA of virus A/Mallard/Netherlands/12/2000 (H7N3) (influenza A virus (H7N3)); assay: cell-based or functional assay
[6] = target: HA of virus A/New Caledonia/20/1999 (H1N1) (influenza A virus (H1N1)); assay: cell-based or functional assay
[7] = target: HA of virus A/Panama/2000/1999 (H3N2) (influenza A virus (H3N2)); assay: cell-based or functional assay
[8] = target: HA of virus A/Solomon Islands/IVR-145 (H1N1) (influenza A virus (H1N1)); assay: cell-based or functional assay
[9] = target: HA of virus A/Wisconsin/67/2005 (H3N2) (influenza A virus (H3N2)); assay: cell-based or functional assay
[10] = target: full-length recombinant H1 HA (A/New Caledonia/20/1999) on PER.C6 cells (influenza A virus (H1N1)); assay: FACS, IgG 5 µg/ml, HA-expressing PER.C6 cells; untransfected MFI 21
[11] = target: full-length recombinant H3 HA (A/Wisconsin/67/2005) on PER.C6 cells (influenza A virus (H3N2)); assay: as above
[12] = target: full-length recombinant H7 HA (A/Netherlands/219/2003) on PER.C6 cells (influenza A virus (H7N7)); assay: as above

B1: CR8055 (antibody, V domains shown)
VH: EIVLTQSPDFQSVAPKEKVTITCRASRSIGSDLHWFQQRPDQSPKLLIKFASQSMSGVPSRFSGSGSGRDFTLTISSLEAEDAATYYCHQSSSLPLT
VL: EVQLVESGGGLVQPGGSLRLSCAASGFTDSVIFMSWVRQAPGKGLECVSIIYIDDSTYYADSVKGRFTISRHNSMGTVFLEMNSLRPDDTAVYYCATESGDFGDQTGPYHYYAMDV
[1]
  Neutralization titer SK50: > 40 µg/mL
[2]
  Neutralization titer SK50: > 40 µg/mL
[3]
  Neutralization titer SK50: 1.15 µg/mL
[4]
  Neutralization titer SK50: 3.38 µg/mL
[5]
  Neutralization titer SK50: > 40 µg/mL
[6]
  Neutralization titer SK50: > 40 µg/mL
[7]
  Neutralization titer SK50: > 40 µg/mL
[8]
  Neutralization titer SK50: > 40 µg/mL
[9]
  Neutralization titer SK50: 1.07 µg/mL
[10]
  MFI: 31 MFI
[11]
  MFI: 433 MFI
[12]
  MFI: 26 MFI
